Test [1] has as its target T1, cynomolgus monkey FCRL1 (XP_015310712), transiently expressed on 293T cells (cynomolgus monkey).
T1 chain: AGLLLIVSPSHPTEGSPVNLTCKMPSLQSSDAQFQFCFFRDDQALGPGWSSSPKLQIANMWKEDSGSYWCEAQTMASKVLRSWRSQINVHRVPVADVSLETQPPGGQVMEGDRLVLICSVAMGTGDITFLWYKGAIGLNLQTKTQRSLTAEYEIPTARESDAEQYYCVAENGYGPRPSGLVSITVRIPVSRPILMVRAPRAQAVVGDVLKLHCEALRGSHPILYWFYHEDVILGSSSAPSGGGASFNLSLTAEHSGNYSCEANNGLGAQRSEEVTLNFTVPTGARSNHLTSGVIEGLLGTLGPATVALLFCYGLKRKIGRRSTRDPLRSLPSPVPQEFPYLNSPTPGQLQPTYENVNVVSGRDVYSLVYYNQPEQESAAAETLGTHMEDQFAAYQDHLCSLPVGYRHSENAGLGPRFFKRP
In words: flow cytometry on 293T cells transiently expressing cynomolgus monkey FCRL1. The procedure:
An antigen-specific reactivity of the novel anti-human FCRL1 mouse antibody obtained in Example 4 was evaluated by Flow Cytometry (FCM). FCRL1 antigen-expressing cells were prepared by transiently expressing the recombinant FCRL1 antigen on 293T cells. A codon-optimized cDNA was synthesized based on the amino acid sequence of human FCRL1 (NCBI accession number: NP_443170.1) or cynomolgus monkey FCRL1 (XP_015310712), and a fragment in which the sequence of an internal ribosome entry site (IRES) derived from the encephalomyocarditis virus (EMCV) and the sequence of TagBFP were arranged in tandem was cloned into pcDNA 3.1hygro to construct an expression plasmid vector for human FCRL1 or cynomolgus monkey FCRL1. […]
(§1) Cells that transiently expressed human FCRL1 or cynomolgus monkey FCRL1 were reacted with a 3-fold dilution series of each antibody starting from 100 nM (15 μg/ml) at 12 points. Data obtained by the FCM was analyzed, and a binding amount of each antibody bound to the cell was calculated as a fluorescence amount MFI derived from the PE-labeled secondary antibody. An antibody concentration and the measured MFI were plotted with respect to a logarithm of the antibody concentration, a saturated binding curve of each antibody was obtained, and regression was performed by a 4-parameter logistic model.

Test [2] addresses T2, human FCRL1 (NCBI accession number: NP_443170.1), transiently expressed on 293T cells (human, UniProt Q96LA6 17-429).
T2 construct: also called Fc receptor-like protein 1; CD307a
T2 sequence: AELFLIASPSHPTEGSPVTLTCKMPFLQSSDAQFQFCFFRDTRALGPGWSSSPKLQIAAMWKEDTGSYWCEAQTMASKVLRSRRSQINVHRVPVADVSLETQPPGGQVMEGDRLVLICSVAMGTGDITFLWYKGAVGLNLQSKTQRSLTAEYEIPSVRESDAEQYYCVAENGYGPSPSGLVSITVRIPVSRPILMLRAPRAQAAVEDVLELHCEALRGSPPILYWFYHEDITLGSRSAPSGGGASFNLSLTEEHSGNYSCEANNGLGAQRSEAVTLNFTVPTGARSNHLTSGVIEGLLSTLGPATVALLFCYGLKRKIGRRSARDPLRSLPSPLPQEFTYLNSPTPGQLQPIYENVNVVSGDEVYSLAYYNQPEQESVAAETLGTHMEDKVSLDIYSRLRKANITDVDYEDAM
In words: flow cytometry on 293T cells transiently expressing human FCRL1; apparent KD from EC50 of a 4-parameter fit. How it is done: An antigen-specific reactivity of the novel anti-human FCRL1 mouse antibody obtained in Example 4 was evaluated by Flow Cytometry (FCM). FCRL1 antigen-expressing cells were prepared by transiently expressing the recombinant FCRL1 antigen on 293T cells. A codon-optimized cDNA was synthesized based on the amino acid sequence of human FCRL1 (NCBI accession number: NP_443170.1) or cynomolgus monkey FCRL1 (XP_015310712), and a fragment in which the sequence of an internal ribosome entry site (IRES) derived from the encephalomyocarditis virus (EMCV) and the sequence of TagBFP were arranged in tandem was cloned into pcDNA 3.1hygro to construct an expression plasmid vector for human FCRL1 or cynomolgus monkey FCRL1. The purified expression vector was transfected into 293T cells, cells were collected 2 days after transfection, and binding with each antibody was confirmed by FCM.
As the secondary antibody, when the sample is a mouse antibody, R-Phycoerythrin (PE) F(ab′)₂ Fragment Goat Anti-Mouse IgG (H+L) (Jackson ImmunoResearch) was used, and when the sample is a human antibody or a human chimeric antibody, R-Phycoerythrin (PE) F(ab′)₂ Fragment Goat Anti-Human IgG, Fcγ Fragment Specific (Jackson ImmunoResearch) was used. A solution of each secondary antibody was prepared by diluting the stock solution 200 times with an FCM buffer. After washing once, cells in each well were suspended with 100 μL of FCM buffer, and binding to each antibody was confirmed by flow cytometry (FCM).
as §1
(In general: A flow cytometer gives signals particle by particle.)

B1: anti-human FCRL1 mouse monoclonal antibody DK610 (antibody, V domains shown)
VH: DVLLQESGPGLVKPSQSLSLTCSVAGYSITSDYAWNWLRRFPGNRLEWMGYITYSGSTAYHPSLKGRISFTRDTSQNQVFLQLHSVTTEDSATYYCAQGGTLITTWFLRWGQGTLVTVSA
VL: DIVLTQSPASLAVSLGQRATISCRASKSVSTSDYNYMHWYRQKPGQPPKLFIYLASNLESGVPARFSGSGSGTDFTLNIHPVEEEDAATYYCQQSRELPSTFGGGTKLEIK
For the molecule B1, in test [1], the binding result was “no binding”. Also, the Kd in test [2] was 0.4 nM.

The values are drawn from patent publication US20250382371A1 (NATIONAL INSTITUTES OF BIOMEDICAL INNOVATION HEALTH AND …, published 2025).
